Test results taken from paper PMC3064667.

Target: T1, human IL-10 receptor (human) (UniProt Q13651)
T1 sequence 1: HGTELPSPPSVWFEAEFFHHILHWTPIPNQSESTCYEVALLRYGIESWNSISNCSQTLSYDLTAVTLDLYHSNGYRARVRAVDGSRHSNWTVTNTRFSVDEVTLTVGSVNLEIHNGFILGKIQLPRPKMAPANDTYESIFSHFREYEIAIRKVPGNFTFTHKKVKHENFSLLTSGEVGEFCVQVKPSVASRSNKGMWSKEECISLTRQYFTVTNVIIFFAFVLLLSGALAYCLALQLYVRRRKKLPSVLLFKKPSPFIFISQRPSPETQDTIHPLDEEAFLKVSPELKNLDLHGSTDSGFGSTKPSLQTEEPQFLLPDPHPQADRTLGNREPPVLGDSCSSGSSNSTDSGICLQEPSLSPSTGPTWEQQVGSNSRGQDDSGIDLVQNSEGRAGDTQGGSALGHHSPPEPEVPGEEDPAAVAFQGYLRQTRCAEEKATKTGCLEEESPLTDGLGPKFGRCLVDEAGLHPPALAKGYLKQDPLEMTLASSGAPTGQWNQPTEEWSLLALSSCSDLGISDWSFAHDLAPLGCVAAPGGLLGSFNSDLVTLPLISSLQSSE
T1 sequence 2: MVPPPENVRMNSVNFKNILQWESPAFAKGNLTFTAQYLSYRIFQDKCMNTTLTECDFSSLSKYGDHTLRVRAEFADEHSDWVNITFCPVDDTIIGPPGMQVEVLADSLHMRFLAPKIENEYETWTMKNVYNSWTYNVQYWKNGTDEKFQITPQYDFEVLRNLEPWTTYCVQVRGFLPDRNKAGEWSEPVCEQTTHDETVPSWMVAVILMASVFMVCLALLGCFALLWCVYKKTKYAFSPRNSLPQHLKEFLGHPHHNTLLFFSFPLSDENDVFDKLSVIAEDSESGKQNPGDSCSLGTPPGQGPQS

Sequence of recombinant bovine IL-10 (P43480 19-178): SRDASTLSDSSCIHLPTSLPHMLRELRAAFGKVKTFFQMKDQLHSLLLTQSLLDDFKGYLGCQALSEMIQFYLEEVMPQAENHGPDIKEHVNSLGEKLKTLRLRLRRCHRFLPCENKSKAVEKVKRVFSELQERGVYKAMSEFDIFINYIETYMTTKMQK

CD83 expression by LPS stimulated DCs, average percentage compared to cells only stimulated with LPS; bovine IL-10 0.25-20 ng/ml (130.5 at 0.25 ng/ml falling to 38.2 at 20 ng/ml) (% of cells only stimulated with LPS): 130
CD86 expression by LPS stimulated DCs, average percentage compared to cells only stimulated with LPS; bovine IL-10 0.25-20 ng/ml (106.3 at 0.25 ng/ml falling to 51.0 at 20 ng/ml) (% of cells only stimulated with LPS): 106
IL-1β production by LPS stimulated monocytes with 10 ng/ml bovine IL-10, average percentage compared to cells only stimulated with LPS (% of cells only stimulated with LPS): 30.3
IL-12 production by LPS stimulated DCs, average percentage compared to cells only stimulated with LPS; bovine IL-10 0.25-20 ng/ml (102.9 at 0.25 ng/ml falling to 1.5 at 20 ng/ml) (% of cells only stimulated with LPS): 103
TNF-α production by LPS stimulated DCs, average percentage compared to cells only stimulated with LPS; bovine IL-10 0.25-20 ng/ml (143.9 at 0.25 ng/ml falling to 0.9 at 20 ng/ml) (% of cells only stimulated with LPS): 144
TNF-α production by LPS stimulated monocytes with 10 ng/ml bovine IL-10, average percentage compared to cells only stimulated with LPS (% of cells only stimulated with LPS): 14.2
Substance: recombinant bovine IL-10 (from UniProt P43480 19-178) (ligand)
